Assay: soluble on expression in E. coli; label from the status in PepcDB or PDB records

Soluble on expression in E. coli, not soluble:
MGSDKIHHHHHHMNFETVIGLEVHVELKTESKIFSASPNHFGAEPNANTSVIDLGYPGVLPVLNKAAVEFAMKAAMALNCEVATDTKFDRKNYFYPDNPKAYQISQFDKPIGENGWIEIEVDGTKKKIGITRLHLEEDAGKLTHSGNGYSLVDFNRQGTPLIEIVSEPDIRTPQEAYAYLEKLKSIIQYTGVSDCKMEEGSLRCDANISLRPVGQEEFGTKTELKNLNSFNFVRKGLEYEEKRQAQVLLSGGEILQETRRYDEAANKTVLMRVKEGSDDYRYFPEPDLVALHIDDEWKARIRSEIPELPDARKKRYVEELGLPAYDAMVLTLTKEMSDFFEETIAKGADPKLASNWLMGEVSGYLNAEQKELDEVALTPDGLAKMIQLIEKGTISSKIAKKVFKDLIEKGGDPEEIVKAKGLVQISDEGELRKYVVEVLDNNQQSIDDFKNGKDRAIGFLVGQIMKATKGKANPPMVNKLLLEEINKR
MGSDKIHHHHHHMNFKQLLIDNFTYKTSYIARQAQGMNVKETKDYIAVDCGLPADTFNIITLLNNNVTEGIEKLYKEVNNYNQKKFPMSVWFWDDRYEQTIKSELIKLDLKEAEQNIAMVAELNTIHPTINMPEGFTIQKASSPEQIKKFGETLANLFGSSEEGIHVQAFYNQTASFDLWNSGNMNLYLGLYKDEVISVGSLVCTKDSIGIYDIATKEEMRGKGFGSTMFHYLLQEAKALNVAQCVLQASPDGINIYKKAGFQSVGQMTVFENRHLFE
MGSDKIHHHHHHMNFLVRNLVENLEEGDRVILDVTHSFRSIPLMASVVALYLKEAKDVNVSVVYGKYNKETKVTECEDLTPLTKATSWIYAVRLFKEYGYAKELADLIKKRNEEIYRRSQSSKKPKLLGSMSQKLQDLSSSIRLGSIVAIRKNLTNFFNFIDRNKARIREETEVFVPEIAALLDGIEKRYRVIHVKSENFELSEKELESEKELLDFYLQTGDLGMALRLAREYLINVYLMSGGEKSDFLDRNVRESVSISTFGYDTILQARNHVAHFGFNKLQLPSLKKIEDHLKVLVQTPPEQLLESARKTQRNRKRALLTPLGTTKGALYTVLKKISPDLLLVITSKQGKAILSEILEKAEFKGEFRVILLEDPFMGVSEIDRVVSEIKEHLSDVDEVIVNLTGGTTFLTYVIERAKNQIRYGRKVKTILAVDKRTYEEQKQNPFVVGEILELD
MGSDKIHHHHHHMNFQRDFNDLLNALLTDWRNQFPDADLSQGSLIYMKSACLASALWGLYKYQEWISKQIFPDTAETKYLEHHAWVRGLSRRSGETDEELLARLLEYIRRPPAGGNKYDYQKWALEIDNVANAWCIPLSQGPGTVDVIIAADETVTGSEIPSSHALTGTTTAITENKLVDGAADFMATGDGGPVRIGDIAVNDDTGGQAVITAVDNATQLTLDTDIFSSIGQSYTLKSLTAQVGEYIDDVRPVTVSIVRILPPAVTLQDVTMTVTGTVNKEAIASAITSLLRSLVPGQTLYLSRLIAIAIQEGATNASISAPAADMSPGPYEMLRPGTITVS
MGSDKIHHHHHHMNHPSVFHPGPAAISPQQRLLLMHEGEWEDFIEECVRQLQKEGNYVEVVALGGSGDKGRDVCGYSKEYPAAGTWDLYQAKHYDSPLTPSEFFPELAKFVTCVWREDYTRPAKYFICASRDVGTTLFDLLKNPVRLKERLLDDWRKKGGKFGKFKQPLDADLEKFIEVFPFDVVKRLPPMELLSIHERDTASYWARFGVLAPRENDPEVPPKPVSSESTYVTALLRVYAEHAQVKIDDVPDIPPAHGAHFKAQRRLFYSAEGLHRFSRDKLPGAFEALLDEVENGIGAELTFPHESGFVRLHSVLKTANVLQIMNNPLRARLRSGDLQGSCHHLANQGRAQWVESDEADGESV
MGSDKIHHHHHHMNIDAHNLNDLMYFSQVVEHGGFSAAERVLGISKSRLSRRLTELEAALGVRLLQRSTRKLALTEAGELFYQHCQAMLAEAQAAMNAVQQLRSSPRGSVRVSVPVTLSQTMLSRILPEFLHRYPEVKVHIRVTNRVIDLFEDSVDVALRVRSEPPQNANIVVRPLWRTEQMLVGAPSLLSQNAPPLVPDDLARFETLDTPSVDGRHVFNLIAPDGTRHLHEHDPRLVTADLMTIREAVLDGLGIAALPEMMYGNALRAGQLSPVMPGWTLPVPQLYAAFVSRQGMPPAVRAFVDYLVEKLDHGDYKQPSCPERDKKEAAAADVSST
MGSDKIHHHHHHMNKSIRSSTLTRIRLIEAASQVFASLGVQGATTREIARVAGVNEVTLFRHFASKEQLLGAVIKNALALQTEALAYPEAWTQDLKIDLRQYAHLYNTMLEAQEDLIRTFIGEAKRHPEAAKQVIQEAAKPLREKLVAYLESSQKLGTVRVDLAPFPAVDMFTGMLLAGMLCRSAKFNQGSYSCEDYIETCVDIFVRGISTSNSSQCGCKF
MGSDKIHHHHHHMNKTLVIGAAFVDVIVDVPKLPKTGDDIPGNLKSYVVGGSAFNVFGTLKHEKINTDLFVPVGEGNYANQIKEKMRELKIPIKLPVRGNDNGWDISFIEPGGERSFLTIQGIEQDWKTEWFKTININEYKYFYLSGYEMENENAGKVILKELQKRIPESLLLFDASPRISSISKTIIQKIMKKNVIINCNKEEANYFMPKGHSLEEKARRIYAKTESPVIVTLGSNGSYYYDGNDHIIPSEKKDKIINTIGAGDTHCGGILAGLNKDMSFKDSVILANRLSGLVVEKESGSL
MGSDKIHHHHHHMNLEQILLAISNPNDNELTIAGLEAAKVNWSVFYPELERLMDQFIADDTSLTDEQEAIVFFGTLLLAELKYSPALAKCLQLFARSDTYLTPIEAIFGDALTELTATLFFNVADGSTQTLSDYIVDGHQAMYCKASAIEAVFAQYEVGVIDKTELVEHVTRWLAAFLALPSSNNSFLISVLADSCIKYQLDDFKPQFIDLCDNDLFDEDRFKQCEVKAWDKANAAKLIESGNIQTKFNVVDTLNAWIVDDSNNEVADNMSNEDSDAFESLMGEDGLLADILYDENTILENSVPVSSLPTAGRNDPCPCGSGKKYKKCCLR
MGSDKIHHHHHHMNLKDKTLLITGIDEFVGLRTAELAIAQGMKVRGLKSSTEQNKQLQNLGVEIIIGSITDSTIAQKACQGVDIVLHTDQLAEEAGAIKNFRDVNVGGTVNMAKAAKQAGVKTFVHLSSVMVYGFNYPNGVTESGPLSGENNPYCETKIEAETAVLELNNPPDFGIIVIRAGDVYGPGSIPWIVRPVLMMRQKLFACANDGKGVINHVYIDNLIDGIFLAIEKETYGEIFNITDGQETSWKEYFMRLAAMEGLSAPLSLPKDEIKLFLKLRVQGQKLFRKKVDILPESIDFMTRPYACSIVKAQSMLNYKPTIHLEEGMQRTHEWLQKTDIQSLIK
MGSDKIHHHHHHMNNTPTPPKVLLLLTSLHGGGAERVAVHLLNRLQGRFDMRMGLLRASGPYLDQADRSRLIVAPEGETHFNFDGPNSANYRPGKLVGSAVRAPLAFRRMIRETQPDVVLSFLKGTNLLVWLALMNMGRARPRWIAREGNNVLAVIREEAPNGAVARASRDLTAKAYRRADAVLANSTDMAAGLITDLDLDPAKMRMINNPIDIDGIREAAGESLPGAPNRPFILTAGRLEYQKAHEVLLRAFARSEAWRTHALVILGKGSRLGELHRLAAQLGIGEYVRFIGFVPNPYAWMARADLFVLPSRWEGFPTVAAEAMACGTPLLLTDCRFGARDIVEPGVTGELVPVNDEAALATEIAALLASPERRSALARAGREKVERFRLERMLEAYAALFDEQFAARRR
MGSDKIHHHHHHMNSLGAVIKEIRKNRKLTQKMLSEDICSQSVLSRIENNEELPNVLVMQQLCDRLGVTVDQIMRYKSGDVHVVTYSFEKMAEYFRHKKYQLLLNYLKENRIEEQLYLDTDWQKYYYYLGSCELFVLNDYEKAIASLRKGLSFTYKADKLNVSDLEIQLISCLGATYGYMGNRVEAERFLSLSIHYFNQLPNERSNAELTKIFFNYADFLFKNYTEKDAEIYVDQGITWARKKNSYYYLSELLNLKYLVLMRKNKHEEAERYLNLAQQMKNVESGNL
MGSDKIHHHHHHMNSPADYDPKPRRASVAVDVGGVIVGGGAPVVVQSMTNTDTADIDATVRQVAALFQAGSEMVRITVDRDESAAAVPKIRERLLRLGMDVPLIGDFHYIGHKLLADHPACAEALAKYRINPGNVGFKDKKDKQFGEIVEMAIRYDKPVRIGVNWGSLDQELLTTLMDRNKEQGFPLSARQVTREAIVQSALISAELAEEIGLPRNRIILSAKVSQVQDLIAVYSMLSERSNHALHLGLTEAGMGSKGIVASSAAMGYVLQHGIGDTIRVSLTPEPNGDRTREVQVAQELLQVMGFRQFIPVVAACPGCGRTTSTVFQELAQNIQNDIRKNMPIWREKYPGVEALNVAVMGCIVNGPGESKHADIGISLPGTGESPAAPVFIDGEKALTLRGPNIAADFEALVIDYIEKRFGQKDAAE
MGSDKIHHHHHHMNSPYTRSPRTIKHAFVTGATGLLGNNLVRALLKQGIKVTALVRSMEKARLQFGDLPIQYVKGDILNPEAFRSAFTDCDTLFHTAAFFRDSHKGGKHWQELYDTNVTGTTHLLKAAYEEGIRQMIHTSSIAVLKGERHQLIDETMSRDPSTKLDYYRSKILSENAVSNFLKEYPDLFLCYVLPGSMYGPGDMGPTATGQLILDYMQQKLPGIITKASYSVVDTRDVADIHILALKYGRRNERYLAAGRHMTMESIVKTLEEITGIPAPKRHIPIFLVQALAQWNELYHKITGKPVLVSKEIADITAEEYLRTYFSHKKTEQELGGQFRPFEETLLDTVRWYRNHGYLN
MGSDKIHHHHHHMNVAIIGCGYVGYQVAQYWQQKMNFVVSTTTTSPERVPALQSVSQRVFVTSGNDLDSLKSVLHNQDVVLLSVGAKGAEVYEETYLQTAQNLVSCLQQNPSVKQLIYTGSYAVYGDRNGVWVDEETPLAPANLNAQILRKTEDILLSASSENLRVCIFRLGGIYGPGRELLKIFSRYSGTNRPGGEDITNWIHLDDIVGAIEFARNRRLQGIYNLVDDAHLTSRDLLDSLFEKHNLPKVIWDTTVKSTRPYNAWVSNEKLKEAGYQLIHPQMIF
MGSDKIHHHHHHMNYLVISPFYPENFQPFTIELAKKEGVTVLGIGQEPYDQLPEELRNALTEYFRVEDLENIDEVKRAAAFLIYKHGPIDRVESHNEYWLENDAALREQFNIFGAKPKHLKKTKFKSEMKKYFKKAGVPVVPGVVVKSERDFGRALKNVGFPMIAKPDNGVGASGTFKIENKEDFDRFVETWDGATIYFLEKFVNSSIITTYDGLLDHEGNVVFETGLTYVHTPLELMLSRKDNAYFIEKELDPQLVKYGRAIIKAFGMRERFFHIEFFKDGDDYIAIEYNNRMAGGFTVEAYNYAHSIDLFRDYANVATGGTVEERRFEPQYCLVATRRDTTEYVHSADDIHQKFAGKIKTVKRMPDAFAELQGNDAYLLVTESKKELDEMIAYIGLTK
MGSDKIHHHHHHMPALAHRRSDIASGTRTTALTDHRFRGRITSFTRQVPKLMNKQQGNTPVHIWRVDFEGMEMRTTSSDGIHVWIARDDVMEALQIPDPGYALSFVTPEDQAALSSGTDVPDEEDEPDGLPMINEIAVYEIMARFPTPPTGRFKPWLLRLRHLFFELMTRDDEATFLLQ

From the DeepSol protein solubility set
